Test results: patent US20050222029A1 (MYRIAD GENETICS, published 2005)

Columns and labels:
Assay in all cases: yeast two-hybrid
[1] = biological target: T1, Catenin, alpha 2 (A2-CAT) 55-487 (human, UniProt P26232 55-487)
T1 construct: prey (Gal4 AD-HA fusion)
T1 sequence (looked up): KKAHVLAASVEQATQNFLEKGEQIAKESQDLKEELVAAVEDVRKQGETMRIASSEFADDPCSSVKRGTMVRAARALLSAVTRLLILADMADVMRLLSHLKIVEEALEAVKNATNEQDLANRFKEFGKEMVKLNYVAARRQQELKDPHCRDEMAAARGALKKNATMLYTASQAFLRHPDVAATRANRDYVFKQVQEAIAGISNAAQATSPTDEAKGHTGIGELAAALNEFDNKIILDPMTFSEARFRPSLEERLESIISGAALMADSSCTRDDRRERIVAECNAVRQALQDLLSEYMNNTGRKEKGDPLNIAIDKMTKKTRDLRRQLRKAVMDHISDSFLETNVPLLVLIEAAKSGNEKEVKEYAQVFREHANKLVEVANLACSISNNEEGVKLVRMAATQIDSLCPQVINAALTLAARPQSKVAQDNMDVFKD

[2] = biological target: T2, Catenin, alpha 2 (A2-CAT) 1-166 (human, UniProt P26232 1-166)
T2 construct: prey (Gal4 AD-HA fusion)
T2 sequence (looked up): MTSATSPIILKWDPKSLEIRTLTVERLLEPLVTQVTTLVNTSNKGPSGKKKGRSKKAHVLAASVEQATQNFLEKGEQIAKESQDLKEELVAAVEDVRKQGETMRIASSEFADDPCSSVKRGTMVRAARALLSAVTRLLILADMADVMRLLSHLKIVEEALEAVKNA

[3] = biological target: T3, Apolipoprotein A-I (APOA1) 106-267 (human, UniProt P02647 106-267)
T3 construct: bait (Gal4 DBD fusion)
T3 sequence (P02647 106-267 limits assumed, form in doubt): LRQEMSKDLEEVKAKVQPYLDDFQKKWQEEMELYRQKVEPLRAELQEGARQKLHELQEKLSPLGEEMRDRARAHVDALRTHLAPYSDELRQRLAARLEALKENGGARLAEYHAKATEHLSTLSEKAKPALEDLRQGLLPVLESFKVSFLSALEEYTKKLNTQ

[4] = biological target: T4, Cytoplasmic linker 2 (CYLN2) 607-947 (human, UniProt Q9UDT6 607-947)
T4 construct: prey (Gal4 AD-HA fusion)
T4 sequence (looked up): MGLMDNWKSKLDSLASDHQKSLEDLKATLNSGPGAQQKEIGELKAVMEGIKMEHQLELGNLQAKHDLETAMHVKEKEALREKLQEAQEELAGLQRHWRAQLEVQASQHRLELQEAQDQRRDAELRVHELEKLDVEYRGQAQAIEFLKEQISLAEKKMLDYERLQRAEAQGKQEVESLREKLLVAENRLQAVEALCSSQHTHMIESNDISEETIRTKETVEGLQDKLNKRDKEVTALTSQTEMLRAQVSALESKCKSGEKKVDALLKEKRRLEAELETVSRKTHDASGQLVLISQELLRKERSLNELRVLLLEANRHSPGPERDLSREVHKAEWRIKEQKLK

[5] = biological target: T5, Golgi autoantigen (Golgin-84) 198-501 (human, UniProt Q8TBA6 198-501)
T5 construct: prey (Gal4 AD-HA fusion)
T5 sequence (looked up): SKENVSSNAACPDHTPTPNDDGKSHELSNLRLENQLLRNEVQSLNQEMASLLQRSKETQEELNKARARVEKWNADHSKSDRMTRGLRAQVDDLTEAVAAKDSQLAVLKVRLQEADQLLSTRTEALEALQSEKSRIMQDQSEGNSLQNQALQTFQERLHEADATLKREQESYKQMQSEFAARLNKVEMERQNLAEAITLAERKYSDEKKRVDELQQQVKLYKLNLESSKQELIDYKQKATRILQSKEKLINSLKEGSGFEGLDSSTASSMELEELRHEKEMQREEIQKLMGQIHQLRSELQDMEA

[6] = biological target: T6, VPS28 protein 9-211 (human, UniProt Q9UK41 9-211)
T6 construct: prey (Gal4 AD-HA fusion); also called vacuolar protein sorting 28
T6 sequence (looked up): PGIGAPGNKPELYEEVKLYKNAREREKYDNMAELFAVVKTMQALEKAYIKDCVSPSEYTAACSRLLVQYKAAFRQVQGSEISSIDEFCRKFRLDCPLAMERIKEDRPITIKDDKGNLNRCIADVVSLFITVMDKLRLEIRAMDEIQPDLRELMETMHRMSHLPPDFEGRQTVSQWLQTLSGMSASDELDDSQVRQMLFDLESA

[7] = biological target: T7, PIBF1 392-758 (human, UniProt Q8WXW3 392-757)
T7 construct: prey (Gal4 AD-HA fusion)
T7 sequence (looked up): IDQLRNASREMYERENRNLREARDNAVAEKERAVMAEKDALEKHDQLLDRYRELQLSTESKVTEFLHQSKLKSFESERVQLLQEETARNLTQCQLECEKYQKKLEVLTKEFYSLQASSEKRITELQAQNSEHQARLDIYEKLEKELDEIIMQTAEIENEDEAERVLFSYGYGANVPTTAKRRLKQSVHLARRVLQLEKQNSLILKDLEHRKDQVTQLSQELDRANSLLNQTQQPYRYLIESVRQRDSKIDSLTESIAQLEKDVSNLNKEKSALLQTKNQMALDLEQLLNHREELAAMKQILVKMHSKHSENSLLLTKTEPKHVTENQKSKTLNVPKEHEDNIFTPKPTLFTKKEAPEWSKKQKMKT

[8] = biological target: T8, golgi autoantigen, golgin subfamily a, 5 (Golgin-84) 609-731 (human, UniProt Q8TBA6 609-731)
T8 construct: prey (Gal4 AD-HA fusion)
T8 sequence (looked up): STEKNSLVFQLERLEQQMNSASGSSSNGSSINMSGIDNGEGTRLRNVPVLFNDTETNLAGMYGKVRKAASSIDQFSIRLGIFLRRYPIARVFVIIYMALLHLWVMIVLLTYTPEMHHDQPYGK

[9] = biological target: T9, upstream of N-ras, alt. transcript (798) (UNR) 110-528 (human, UniProt O75534 110-528)
T9 construct: prey (Gal4 AD-HA fusion)
T9 sequence (looked up): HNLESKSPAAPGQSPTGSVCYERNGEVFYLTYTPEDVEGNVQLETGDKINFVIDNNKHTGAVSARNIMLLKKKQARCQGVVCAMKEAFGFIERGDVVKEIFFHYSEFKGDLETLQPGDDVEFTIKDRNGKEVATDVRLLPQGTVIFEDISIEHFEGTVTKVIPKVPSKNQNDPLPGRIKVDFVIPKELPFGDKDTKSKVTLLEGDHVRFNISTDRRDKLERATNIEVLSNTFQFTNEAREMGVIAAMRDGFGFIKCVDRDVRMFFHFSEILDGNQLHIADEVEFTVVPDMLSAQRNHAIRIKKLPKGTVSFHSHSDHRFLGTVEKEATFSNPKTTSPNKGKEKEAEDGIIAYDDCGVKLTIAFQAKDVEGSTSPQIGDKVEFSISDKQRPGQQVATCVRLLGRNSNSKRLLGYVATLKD

[10] = biological target: T10, Protein kinase C and casein kinase substrate (PACSIN2) 174-367 (human, UniProt Q9UNF0 174-367)
T10 construct: prey (Gal4 AD-HA fusion)
T10 sequence (looked up): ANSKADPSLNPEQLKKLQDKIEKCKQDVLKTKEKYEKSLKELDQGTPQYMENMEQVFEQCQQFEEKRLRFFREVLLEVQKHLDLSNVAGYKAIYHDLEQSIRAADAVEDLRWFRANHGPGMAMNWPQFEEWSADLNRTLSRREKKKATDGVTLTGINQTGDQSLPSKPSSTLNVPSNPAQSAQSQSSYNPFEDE

[11] = biological target: T11, VPS28 protein 10-221 (human, UniProt Q9UK41 10-221)
T11 construct: prey (Gal4 AD-HA fusion); also called vacuolar protein sorting 28
T11 sequence (looked up): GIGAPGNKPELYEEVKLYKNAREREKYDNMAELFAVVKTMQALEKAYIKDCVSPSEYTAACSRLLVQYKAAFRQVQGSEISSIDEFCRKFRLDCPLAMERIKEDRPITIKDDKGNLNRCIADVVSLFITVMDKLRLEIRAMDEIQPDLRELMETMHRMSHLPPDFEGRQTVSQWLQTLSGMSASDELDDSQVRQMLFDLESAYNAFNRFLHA

[12] = biological target: T12, Chromosome-associated polypeptide HCAP (HCAP) 119-353 (human, UniProt Q9UQE7 119-353)
T12 construct: prey (Gal4 AD-HA fusion)
T12 sequence (Q9UQE7 119-353 limits assumed): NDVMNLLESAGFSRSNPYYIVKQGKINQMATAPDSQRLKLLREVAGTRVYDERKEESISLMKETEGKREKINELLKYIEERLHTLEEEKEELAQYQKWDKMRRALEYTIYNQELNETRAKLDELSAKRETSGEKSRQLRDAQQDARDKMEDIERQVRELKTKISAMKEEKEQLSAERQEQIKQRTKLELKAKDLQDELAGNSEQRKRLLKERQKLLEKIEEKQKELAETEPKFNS

[13] = biological target: T13, Charcot-Leyden crystal protein; periplakin (PPL) 1548-1756 (human, UniProt O60437 1548-1756)
T13 construct: prey (Gal4 AD-HA fusion)
T13 sequence (looked up): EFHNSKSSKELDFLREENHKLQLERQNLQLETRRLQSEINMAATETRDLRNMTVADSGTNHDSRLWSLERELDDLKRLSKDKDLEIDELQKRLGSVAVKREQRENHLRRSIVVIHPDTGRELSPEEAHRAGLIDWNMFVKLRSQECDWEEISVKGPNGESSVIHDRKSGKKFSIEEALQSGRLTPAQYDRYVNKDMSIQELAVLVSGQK

[14] = biological target: T14, tetratricopeptide repeat domain 3 (TPRD) 1058-1189 (human, UniProt P53804 1058-1189)
T14 construct: prey (Gal4 AD-HA fusion)
T14 sequence (looked up): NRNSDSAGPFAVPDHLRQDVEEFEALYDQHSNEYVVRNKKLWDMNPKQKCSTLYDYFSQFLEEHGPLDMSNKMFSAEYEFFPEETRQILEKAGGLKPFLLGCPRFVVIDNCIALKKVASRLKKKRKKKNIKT

[15] = biological target: T15, intracellular chloride channel protein (CLIC1) 51-210 (human, UniProt O00299 51-210)
T15 construct: range 51-210; prey (Gal4 AD-HA fusion); also called NCC27

[16] = biological target: T16, intracellular chloride channel protein (CLIC1) 98-210 (human, UniProt O00299 98-210)
T16 construct: range 98-210; prey (Gal4 AD-HA fusion); also called NCC27

B1: Survivin (BIRC5) 52-143 (other, human, UniProt O15392 52-142, looked up)
chain: PDLAQCFFCFKELEGWEPDDDPIEEHKKHSSGCAFLSVKKQFEELTLGEFLKLDRERAKNKIAKETNNKKKEFEETAKKVRRAIEQLAAMD
notes: range 52-143; bait (Gal4 DBD fusion); also called API4
[1]
  binding result: binds
[2]
  binding result: binds

B2: syntaxin 2 (STX2) 156-261 (other, human, UniProt P32856 156-261, looked up)
chain: GRTTTDDELEEMLESGKPSIFTSDIISDSQITRQALNEIESRHKDIMKLETSIRELHEMFMDMAMFVETQGEMINNIERNVMNATDYVEHAKEETKKAIKYQSKAR
[3]
  binding result: binds

B3: Tumor Suppressor (TSG101) 231-391 (other, human, UniProt Q99816 231-390, looked up)
chain: ISAVSDKLRWRMKEEMDRAQAELNALKRTEEDLKKGHQKLEEMVTRLDQEVAEVDKNIELLKKKDEELSSALEKMENQSENNDIDEVIIPTAPLYKQILNLYAEENAIEDTIFYLGEALRRGVIDLDVFLKHVRLLSRKQFQLRALMQKARKTAGLSDLY
notes: bait (Gal4 DBD fusion)
[4]
  binding result: binds
[5]
  binding result: binds
[6]
  binding result: binds

B4: Tumor Suppressor (TSG101) 12-326 (other, human, UniProt Q99816 12-326, looked up)
chain: VSKYKYRDLTVRETVNVITLYKDLKPVLDSYVFNDGSSRELMNLTGTIPVPYRGNTYNIPICLWLLDTYPYNPPICFVKPTSSMTIKTGKHVDANGKIYLPYLHEWKHPQSDLLGLIQVMIVVFGDEPPVFSRPISASYPPYQATGPPNTSYMPGMPGGISPYPSGYPPNPSGYPGCPYPPGGPYPATTSSQYPSQPPVTTVGPSRDGTISEDTIRASLISAVSDKLRWRMKEEMDRAQAELNALKRTEEDLKKGHQKLEEMVTRLDQEVAEVDKNIELLKKKDEELSSALEKMENQSENNDIDEVIIPTAPLYK
notes: bait (Gal4 DBD fusion)
[7]
  binding result: binds

B5: v-akt murine thymoma viral oncogene homolog 1 (AKT1) 1-118 (enzyme, human, UniProt P31749 1-118, looked up)
chain: MSDVAIVKEGWLHKRGEYIKTWRPRYFLLKNDGTFIGYKERPQDVDQREAPLNNFSVAQCQLMKTERPRPNTFIIRCLQWTTVIERTFHVETPEEREEWTTAIQTVADGLKKQEEEEM
notes: bait (Gal4 DBD fusion)
[8]
  binding result: binds

B6: ribosomal protein S6 kinase, 90 kDa, polypeptide 1 (p90RSK) 418-467 (enzyme, human, UniProt Q15418 418-467, looked up)
chain: YVVKETIGVGSYSECKRCVHKATNMEYAVKVIDKSKRDPSEEIEILLRYG
notes: range 418-467; bait (Gal4 DBD fusion); also called HU1
[9]
  binding result: binds

B7: Tumor Suppressor (TSG101) 265-391 (other, human, UniProt Q99816 265-390, looked up)
chain: KGHQKLEEMVTRLDQEVAEVDKNIELLKKKDEELSSALEKMENQSENNDIDEVIIPTAPLYKQILNLYAEENAIEDTIFYLGEALRRGVIDLDVFLKHVRLLSRKQFQLRALMQKARKTAGLSDLY
notes: range 265-391; bait (Gal4 DBD fusion); also called TSG101 265-390
[10]
  binding result: binds
[11]
  binding result: binds

B8: Tumor Suppressor (TSG101) 264-391 (other, human, UniProt Q99816 264-390, looked up)
chain: KKGHQKLEEMVTRLDQEVAEVDKNIELLKKKDEELSSALEKMENQSENNDIDEVIIPTAPLYKQILNLYAEENAIEDTIFYLGEALRRGVIDLDVFLKHVRLLSRKQFQLRALMQKARKTAGLSDLY
notes: range 264-391; bait (Gal4 DBD fusion)
[12]
  binding result: binds

B9: v-akt murine thymoma viral oncogene homolog 1 (AKT1) 1-109 (enzyme, human, UniProt P31749 1-109, looked up)
chain: MSDVAIVKEGWLHKRGEYIKTWRPRYFLLKNDGTFIGYKERPQDVDQREAPLNNFSVAQCQLMKTERPRPNTFIIRCLQWTTVIERTFHVETPEEREEWTTAIQTVADG
notes: bait (Gal4 DBD fusion)
[13]
  binding result: binds

B10: v-akt murine thymoma viral oncogene homolog 2 (AKT2) 1-108 (enzyme, human, UniProt P31751 1-108, looked up)
chain: MNEVSVIKEGWLHKRGEYIKTWRPRYFLLKSDGSFIGYKERPEAPDQTLPPLNNFSVAECQLMKTERPRPNTFVIRCLQWTTVIERTFHVDSPDEREEWMRAIQMVAN
notes: bait (Gal4 DBD fusion)
[14]
  binding result: binds
[15]
  binding result: binds
[16]
  binding result: binds
